{
  "source": "patent US8936806B2",
  "about": "“Periostin induces proliferation of cardiomyocytes and promotes cardiac regeneration” (Children's Medical Center Corporation, priority 2007, dated 2015)",
  "molecules": {"B1": {"name": "periostin: Recombinant periostin, purified from HEK293 cells expressing the full-length human cDNA; secreted protein of 834 amino acids (Seq ID. No. 1) (protein, listed as Homo sapiens)", "chain": "MIPFLPMFSLLLLLIVNPINANNHYDKILAHSRIRGRDQGPNVCALQQILGTKKKYFSTCKNWYKKSICGQKTTVLYECCPGYMRMEGMKGCPAVLPIDHVYGTLGIVGATTTQRYSDASKLREEIEGKGSFTYFAPSNEAWDNLDSDIRRGLESNVNVELLNALHSHMINKRMLTKDLKNGMIIPSMYNNLGLFINHYPNGVVTVNCARIIHGNQIATNGVVHVIDRVLTQIGTSIQDFIEAEDDLSSFRAAAITSDILEALGRDGHFTLFAPTNEAFEKLPRGVLERFMGDKVASEALMKYHILNTLQCSESIMGGAVFETLEGNTIEIGCDGDSITVNGIKMVNKKDIVTNNGVIHLIDQVLIPDSAKQVIELAGKQQTTFTDLVAQLGLASALRPDGEYTLLAPVNNAFSDDTLSMVQRLLKLILQNHILKVKVGLNELYNGQILETIGGKQLRVFVYRTAVCIENSCMEKGSKQGRNGAIHIFREIIKPAEKSLHEKLKQDKRFSTFLSLLEAADLKELLTQPGDWTLFVPTNDAFKGMTSEEKEILIRDKNALQNIILYHLTPGVFIGKGFEPGVTNILKTTQGSKIFLKEVNDTLLVNELKSKESDIMTTNGVIHVVDKLLYPADTPVGNDQLLEILNKLIKYIQIKFVRGSTFKEIPVTVYTTKIITKVVEPKIKVIEGSLQPIIKTEGPTLTKVKIEGEPEFRLIKEGETITEVIHGEPIIKKYTKIIDGVPVEITEKETREERIITGPEIKYTRISTGGGETEETLKKLLQEEVTKVTKFIEGGDGHLFEDEEIKRLLQGDTPVRKLQANKKVQGSRRRLREGRSQ"}},
  "key": {"[1]": {"system": "primary neonatal rat ventricular cardiomyocytes", "assay": "Cell cycle markers (Ki-67, phosphorylated Rb, cyclin A) in neonatal cardiomyocytes", "format": "cell-based", "excerpt": "Primary neonatal rat ventricular cardiomyocytes were isolated using the Neomyts kit (Cellutron, Highland Park, N.J.), seeded at a density of 10^5 cells/cm^2 onto gelatin-coated cover slips, stimulated for 3 days, and labeled with BrdU for the terminal 2 days. Primary adult ventricular cardiomyocytes were isolated from male (300 gm) Wistar rats (Charles River Laboratories) and maintained as described (Engel, F. B. et al. p38 MAP kinase inhibition enables proliferation of adult mammalian cardiomyocytes. Genes Dev 19, 1175-87 (2005)). Adult cardiomyocytes were stimulated daily for 9 days and labeled with 30 μM BrdU for the terminal 3 days. Cardiomyocytes were stimulated with periostin (500 ng/mL) and FGF (100 ng/mL). Inhibiting antibodies were added at a concentration of 10 μg/mL, cRGD at 10 μM, U0126 at 10 μM, PD98059 at 1 μM, LY294002 at 10 μM, and Wortmannin at 0.1 μM 30 min prior to stimulation. The vehicle used to dissolve factors or chemicals was added to unstimulated samples, which were then processed together with the test samples.\nDNA-synthesis was analyzed by visualization of BrdU uptake and cytokinesis was determined by detection of the cleavage furrow and the midbody with an antibody against aurora B kinase as described (Engel, F. B. et al. p38 MAP kinase inhibition enables proliferation of adult mammalian cardiomyocytes. Genes Dev 19, 1175-87 (2005)). Signals were visualized with secondary antibodies conjugated to Alexa 488, Alexa 546, Alexa 594, and Alexa 647 (Invitrogen). Nuclei were visualized with 4′,6′-diamidino-2-phenylindole (DAPI, Invitrogen). For image acquisition, the value for γ was set at 1 and the lookup table settings were linear."}, "[2]": {"system": "primary adult rat ventricular cardiomyocytes", "assay": "DNA synthesis (BrdU uptake, immunofluorescence) in primary adult rat ventricular cardiomyocytes", "format": "cell-based", "excerpt": "Primary neonatal rat ventricular cardiomyocytes were isolated using the Neomyts kit (Cellutron, Highland Park, N.J.), seeded at a density of 10^5 cells/cm^2 onto gelatin-coated cover slips, stimulated for 3 days, and labeled with BrdU for the terminal 2 days. Primary adult ventricular cardiomyocytes were isolated from male (300 gm) Wistar rats (Charles River Laboratories) and maintained as described (Engel, F. B. et al. p38 MAP kinase inhibition enables proliferation of adult mammalian cardiomyocytes. Genes Dev 19, 1175-87 (2005)). Adult cardiomyocytes were stimulated daily for 9 days and labeled with 30 μM BrdU for the terminal 3 days. Cardiomyocytes were stimulated with periostin (500 ng/mL) and FGF (100 ng/mL). […] The vehicle used to dissolve factors or chemicals was added to unstimulated samples, which were then processed together with the test samples. DNA-synthesis was analyzed by visualization of BrdU uptake and cytokinesis was determined by detection of the cleavage furrow and the midbody with an antibody against aurora B kinase as described (Engel, F. B. et al. p38 MAP kinase inhibition enables proliferation of adult mammalian cardiomyocytes. Genes Dev 19, 1175-87 (2005)). Signals were visualized with secondary antibodies conjugated to Alexa 488, Alexa 546, Alexa 594, and Alexa 647 (Invitrogen). […] For image acquisition, the value for γ was set at 1 and the lookup table settings were linear. Primary adult rat ventricular cardiomyocytes were grown on gridded cover slips (Electron Microscopy Services, Ft. Washington, Pa.) and imaged in phase contrast at 10× magnification. Cardiomyocytes were transduced with an adenovirus leading to nuclear expression of histone2B-GFP (Shi, Q. & King, R. W. Nature 437, 1038-42 (2005)) under control of the chicken troponin T promoter ([…]. Am J Physiol Cell Physiol 286, […]-64 (2004)). Nuclei were visualized at 10× magnification with a mercury-arc lamp dimmed to 1.5% with a neutral density filter. […] Images of BrdU-positive cardiomyocytes were matched with the corresponding images from before stimulation. For quantification, differentiated cardiomyocytes were defined as striated rod-shaped structures with length/width ratio>1.5."}, "[3]": {"system": "Adult male Sprague-Dawley rats", "assay": "Rat model of myocardial infarction: echocardiography and catheterization", "format": "in vivo", "conditions": "for Maximum left ventricular elastance / Maximum rate of left ventricular pressure rise / Preload-recruitable stroke work / Slope of end-systolic pressure-volume relationship: catheterization, 12 weeks", "procedure": "Adult male Sprague-Dawley rats (300 gm, Charles River Laboratories) underwent experimental myocardial infarction as described (del Monte, F. et al. Abrogation of ventricular arrhythmias in a model of ischemia and reperfusion by targeting myocardial calcium cycling. Proc Natl Acad Sci USA 101, 5622-7 (2004)). The survival rate was 67%. Gelfoam loaded with 100 μg of recombinant periostin or with buffer were applied over the myocardial infarction at the time of surgery. Rats received 3 intraperitoneal BrdU injections (70 μmol/kg body weight) with a half-life of 2 hr every 48 hr over a period of 7 days. Echocardiography and hemodynamic catheterization were performed as described (Prunier, F. et al. Am J Physiol Heart Circ Physiol (2006))."}, "[4]": {"system": "primary neonatal rat ventricular cardiomyocytes", "assay": "Cardiomyocyte proliferation by cell count (hemocytometer)", "format": "cell-based", "description": "To determine cardiomyocyte proliferation, primary neonatal rat ventricular cardiomyocytes were quantified by counting with a hemocytometer after 3 days and 6 days of stimulation. To determine cardiomyocyte survival, primary neonatal rat ventricular cardiomyocytes were pre-treated with 500 ng/mL periostin or buffer for 30 min and then exposed to 0.5 μM doxycycline or 100 ng/mL TNFα for 24 hr and quantified by counting. Corresponding samples were stained with an antibody directed against tropomyosin as a cardiomyocyte marker to control for the percentage of differentiated cardiomyocytes. Apoptotic cardiomyocyte nuclei were determined after 24 hr with the In situ Cell Death Detection Kit (Roche, Indianapolis, Ind.) in combination with staining for troponin I."}, "[5]": {"system": "differentiated cardiomyocytes", "assay": "Hypertrophy by [3H]leucine uptake", "format": "cell-based, rat", "conditions": "phenylephrine 10 mM [sic]; all time points tested", "excerpt": "Induction of the fetal gene program is accompanied by increased protein synthesis leading to cardiomyocyte hypertrophy. We assessed cardiomyocyte hypertrophy by measuring uptake of [^3H]leucine."}, "[6]": {"conditions": "H2B-GFP, after 6 days, 3 days BrdU labeling, stimulus not named in block (periostin section)"}, "[7]": {"conditions": "12 weeks after MI, listed as Periostin"}},
  "note": "“Also recorded” adds a separate entry of the source.",
  "data": [
    {"molecule": "B1", "values": [
      {"measurement": "increase of cardiomyocytes expressing cyclin A", "setting": "[1]", "result": 11, "unit": "fold"},
      {"measurement": "increase of cardiomyocytes with phosphorylated Rb", "setting": "[1]", "result": 12, "unit": "fold"},
      {"measurement": "increase of proliferating cardiomyocytes (Ki-67)", "setting": "[1]", "result": 4, "unit": "fold"},
      {"measurement": "increase of cardiomyocyte DNA synthesis", "setting": "[2]; 9 days periostin 500 ng/mL, vs non-stimulated", "result": 14, "unit": "fold"},
      {"measurement": "cardiomyocyte DNA synthesis", "setting": "[2]; 9 days stimulation (periostin 500 ng/mL, FGF 100 ng/mL), BrdU terminal 3 days", "result": "1.1±0.2", "unit": "%"},
      {"measurement": "BrdU-positive binucleated cardiomyocytes", "setting": "[2]; [6]", "result": "0.2±0.03", "unit": "%"},
      {"measurement": "BrdU-positive mononucleated cardiomyocytes", "setting": "[2]; [6]", "result": "1.7±0.3", "unit": "%"},
      {"measurement": "start of periostin-induced cardiomyocyte DNA synthesis", "setting": "[2]; time-course of stimulation", "result": 3, "unit": "days"},
      {"measurement": "Ejection fraction", "setting": "[3]; 1 week after MI", "result": 53, "unit": "%"},
      {"measurement": "End-diastolic dimension", "setting": "[3]; 1 week after MI", "result": "8.1 ± 0.4", "unit": "mm"},
      {"measurement": "End-systolic dimension", "setting": "[3]; 1 week after MI", "result": "6.1 ± 0.4", "unit": "mm"},
      {"measurement": "Shortening fraction", "setting": "[3]; 1 week after MI, periostin Gelfoam 100 μg", "result": 25, "unit": "%"},
      {"measurement": "Shortening fraction", "setting": "[3]; 1 week after MI, periostin Gelfoam 100 μg, listed as Periostin", "result": "25.2 ± 2.1", "unit": "%"},
      {"measurement": "Ejection fraction", "setting": "[3]; 1 week after MI, listed as Periostin", "result": "52.6 ± 2.9", "unit": "%"},
      {"measurement": "Ejection fraction", "setting": "[3]; 12 weeks after MI", "result": 66, "unit": "%"},
      {"measurement": "End-diastolic dimension", "setting": "[3]; 12 weeks after MI", "result": "significantly smaller"},
      {"measurement": "End-systolic dimension", "setting": "[3]; 12 weeks after MI", "result": "6 ± 0.5", "unit": "mm"},
      {"measurement": "Shortening fraction", "setting": "[3]; 12 weeks after MI", "result": 33, "unit": "%"},
      {"measurement": "Ejection fraction", "setting": "[3]; [7]", "result": "65.9 ± 3.8", "unit": "%"},
      {"measurement": "End-diastolic dimension", "setting": "[3]; [7]", "result": "8.4 ± 0.2", "unit": "mm"},
      {"measurement": "Shortening fraction", "setting": "[3]; [7]", "result": "33.0 ± 2.6", "unit": "%"},
      {"measurement": "Maximum left ventricular elastance", "setting": "[3]", "result": "higher"},
      {"measurement": "Maximum rate of left ventricular pressure rise", "setting": "[3]", "result": "higher"},
      {"measurement": "Preload-recruitable stroke work", "setting": "[3]", "result": "higher"},
      {"measurement": "Slope of end-systolic pressure-volume relationship", "setting": "[3]", "result": "steeper slope"},
      {"measurement": "Maximum left ventricular elastance", "setting": "[3]; listed as Periostin", "result": "2.5 ± 1"},
      {"measurement": "Maximum rate of left ventricular pressure rise", "setting": "[3]; listed as Periostin", "result": "4821 ± 513", "unit": "mm Hg/s"},
      {"measurement": "Preload-recruitable stroke work", "setting": "[3]; listed as Periostin", "result": "68.6 ± 13.9", "unit": "mm Hg"},
      {"measurement": "Slope of end-systolic pressure-volume relationship", "setting": "[3]; listed as Periostin", "result": "1.4 ± 0.2", "unit": "mm Hg/μL"},
      {"measurement": "increase of cardiomyocyte proliferation", "setting": "[4]; after 3 days", "result": 3.6, "unit": "fold"},
      {"measurement": "increase of cardiomyocyte proliferation", "setting": "[4]; after 6 days", "result": 4.2, "unit": "fold"},
      {"measurement": "[3H]leucine uptake (hypertrophy)", "setting": "[5]", "result": "did not induce uptake; also recorded: did not induce hypertrophy"}
    ]}
  ]
}
